{"source": "the nanobody polyreactivity screen of Harvey et al. (2022)"}
{"assay": "yeast display, Sf9 membrane polyspecificity reagent, FACS + sequencing; frameworks hold sequencing errors", "summary_of_the_method": "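Genes from sorted yeast were amplified by colony PCR, read by MiSeq 2 × 250 sequencing and filtered on CDR length. These cells carried a synthetic nanobody library in Saccharomyces cerevisiae BJ5465 and were sorted by FACS into low and high (top ~1%) gates on anti-HA and streptavidin fluorescence. Polyreactivity is labelled according to the gate of origin.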"}
{"sequence": "QVQLVESGGGLVQAGGSLRLSCAASGRTFGTYAMGWYRQAPGKERELVAVITNGGGTYYADSVKGRFTISRDNAKNTVYLQMNSLKPEDTAVYYCNTDRYGLRRWVYSYWGGYDYWGQGTQVTVSS", "polyreactivity (PSR sort gate)": "low polyreactivity"}
{"sequence": "QVQLVESGGGLVQAGGSLRLSCAASGRTFGVNAMGWYRQAPGKERELVAAISRSGGSTYYADSVKGRFTISRDNAKTTVYLQMNSLKPEDTEVYYCAKSYFGHHLTGFGYWGQGTQVTVSS", "polyreactivity (PSR sort gate)": "low polyreactivity"}
{"sequence": "QVQLVESGGGLVQAGGSLRLSCAASGRTFGVYAMGWSRQAPGKERELVAGIRWRGGSTYYADSVKGRFTISRDNEKKTVYFQMNSLKPEETAVYYCAADVYLVKYDYWGQGTQVTVSS", "polyreactivity (PSR sort gate)": "low polyreactivity"}
{"sequence": "QVQLVESGGGLVQAGGSLRLSCAASGRTFGVYAMGWYRQAPGKERELVAAISATGGSTYYADSVKGRFTISRDNAKNTVYLQMNSLKPEDTAVYYCARGGTTLYWGQGTQVTVSS", "polyreactivity (PSR sort gate)": "high polyreactivity"}
{"sequence": "QVQLVESGGGLVQAGGSLRLSCAASGRTFGVYAMGWYRQAPGKERELVAASRWSGGGTYYADSVKGRFTISRDNAKNTVYLQMNSLKPEDTAVYYGAATFQNSPYSRYTDMYYWGQGTQVTVSS", "polyreactivity (PSR sort gate)": "low polyreactivity"}
{"sequence": "QVQLVESGGGLVQAGGSLRLSCAASGRTFGVYMGWYRQAPGKERELVAVISSGDSTNYADSVKGRFTISRDNAKNTVYLLMNSLKPEDTAVYYCNAYGSDRLTLDDYWGQGTQVSVSS", "polyreactivity (PSR sort gate)": "low polyreactivity"}
{"sequence": "QVQLVESGGGLVQAGGSLRLSCAASGRTFGWDAMGWYRQAPGKERELVAAINNSGDITYYADSVKGRFTISRDNAKNTVYLQMNSLKPEDTAVYYCAATAGYYGYPSEYDYWGQGTQVTVSS", "polyreactivity (PSR sort gate)": "low polyreactivity"}
{"sequence": "QVQLVESGGGLVQAGGSLRLSCAASGRTFGWNAMGWYRQAPGKERELVAGITTSGGTTYADSVKGRFTISRDNAKNTVYLQMNSLKPEDTAVYYCAAYVIGPDQFIYDYWGQGTQVTVSS", "polyreactivity (PSR sort gate)": "low polyreactivity"}
{"sequence": "QVQLVESGGGLVQAGGSLRLSCAASGRTFGWYAMGWYRQAPGKERELVAAINNSGDITYYADSVKGRFTISRDNAKNTVYLQMNSLKPEDTAVYYCAKSLPHSTSRDYWGQGTQVTVSS", "polyreactivity (PSR sort gate)": "low polyreactivity"}
{"sequence": "QVQLVESGGGLVQAGGSLRLSCAASGRTFGYNALGWYRQAPGKERELVAAINWSGASTYYADSVKGRFTISRDKAKNTVYLQMNSLKPEDTAVYYCAKVTRGSQYDYWGQGTQVTVSS", "polyreactivity (PSR sort gate)": "low polyreactivity"}
{"sequence": "QVQLVESGGGLVQAGGSLRLSCAASGRTFGYNAMGWYRQAPGKERELVAAISWRSGGTYYADSVKGRFTISRDNANNSVYLQMISLKPEDTAVYYCARRSPHHGRDYWGQGTQVTVSS", "polyreactivity (PSR sort gate)": "low polyreactivity"}
{"sequence": "QVQLVESGGGLVQAGGSLRLSCAASGRTFGYNAMGWYRQAPGKERELVAVIRSGGSTSYADSVKGRFTISRDNAKNTVYLQMNSLKPEDTAVYYCAATGLYNVTSPYSYKYDYWGQGTQVTVSS", "polyreactivity (PSR sort gate)": "low polyreactivity"}
{"sequence": "QVQLVESGGGLVQAGGSLRLSCAASGRTFGYNAMGWYRQAPGKESELVAAINWSGASTYYADSVKGRFTISRDNAKNTVYLQMNSLKAEDTAVYYCAADYSYIYGFDYWGQGTQVTVSS", "polyreactivity (PSR sort gate)": "low polyreactivity"}
{"sequence": "QVQLVESGGGLVQAGGSLRLSCAASGRTFGYNAMGWYRQAPVKERELVAAIRTIGDSTYYADSVKGRFTISRDNAKNTVYLQMNSLKPEDTAVFYCAARKLRSRYDYWGQGTQVTVSS", "polyreactivity (PSR sort gate)": "high polyreactivity"}
{"sequence": "QVQLVESGGGLVQAGGSLRLSCAASGRTFGYNAMGWYSQAPGKERELVAAISYSGGRTYYADSVKGRFTISRDNAKNTVYLQMNSLKPEDTAVYYCAAKNPYKYDYWGQGTQVTVSS", "polyreactivity (PSR sort gate)": "high polyreactivity"}
{"sequence": "QVQLVESGGGLVQAGGSLRLSCAASGRTFGYNVMGWYRQAPGKERELVADITSTSSTSYADSVKGRFTISRDNAKNTVYLQMNSLTPEDTAVYYCAAYYYFFRRYSWRLSGDYWGQGTQVTVSS", "polyreactivity (PSR sort gate)": "low polyreactivity"}
{"sequence": "QVQLVESGGGLVQAGGSLRLSCAASGRTFGYYAMGWSRQAPGKERELVAAITYSGGRTRYADSVKGRFTISRDNAKNTVYLQMNSLKPEDTAVYYCNRVIPTQSLRDYYWGQGTQVTVSS", "polyreactivity (PSR sort gate)": "high polyreactivity"}
{"sequence": "QVQLVESGGGLVQAGGSLRLSCAASGRTFGYYAMGWYRQAPGKERELVAAISWRGTSTYYADSVKGRFTISRDNAKNTVYLQMNSLKPEDTAVYYCNRYTTRYYPGGDYWGQGTQVTVSS", "polyreactivity (PSR sort gate)": "high polyreactivity"}
{"sequence": "QVQLVESGGGLVQAGGSLRLSCAASGRTFGYYAMGWYRQAPGKERELVAAITRSGDRTYYADSVKGRFTISRDNAKNTVYLQLNSLKPEDTAVYYCARYAYLISDYWGQGTQVTVSS", "polyreactivity (PSR sort gate)": "high polyreactivity"}
{"sequence": "QVQLVESGGGLVQAGGSLRLSCAASGRTFGYYAMGWYRQAPGKERELVAGIRSSGGSTYYADSVKGRFTISRDNAKNTVYLQMNSLKPEDTAVYYCAARLRSYHYRYGYDYWGQGTQVTVSS", "polyreactivity (PSR sort gate)": "high polyreactivity"}
{"sequence": "QVQLVESGGGLVQAGGSLRLSCAASGRTFGYYAMVWYRQAPGKERELVAAISTSGGGTYYADSVKGRFTISRDNAKNTVYLQMNSLKPEDTAVYYCNRDSRVLEGDYWGQGTQVTVSS", "polyreactivity (PSR sort gate)": "low polyreactivity"}
{"sequence": "QVQLVESGGGLVQAGGSLRLSCAASGRTFGYYTMGWYRQAPGKERELVAAISWNGDDTYYADSVKGRFTISRDNAKNTVYLQMNSLKPEDTAVYYCAKDFLGNYYWTDVYTYGGEGDYWGQGTQVTVSS", "polyreactivity (PSR sort gate)": "low polyreactivity"}
{"sequence": "QVQLVESGGGLVQAGGSLRLSCAASGRTFHAYAMGGYRQARGKARELVATISTSGTSTYYADSVKGRFTISRDNAKNTVYLQMNSLKAEDTAVYYCGKGPRQDFYFSFEYWGQGTQVTVSS", "polyreactivity (PSR sort gate)": "high polyreactivity"}
{"sequence": "QVQLVESGGGLVQAGGSLRLSCAASGRTFHDNAMGWYRQAPGKETELVAAISWRGGSTNYADSVKGRFTISRDNAKNTVYLQMNSLKPEDTAVYYCNRDPRKYGKLDYWGQVTQVTVSS", "polyreactivity (PSR sort gate)": "low polyreactivity"}
{"sequence": "QVQLVESGGGLVQAGGSLRLSCAASGRTFHDYAMGWYRQAPGKERELVAAISISGVSTYYADSVKGRFTSSRDNAKNTVYLQMNSLKPVDTAVYYCAAAQDAAVYWRPGGYDYWGQGTQVTVSS", "polyreactivity (PSR sort gate)": "low polyreactivity"}
{"sequence": "QVQLVESGGGLVQAGGSLRLSCAASGRTFHFYAMGWYRQAPGKERELVASITWSAVRTYYADSVKGRFTISRDNAKNTVYLQMNSLKQVDTAVYYCAKEWDYRLMDYWGQGTQVTVSS", "polyreactivity (PSR sort gate)": "low polyreactivity"}
{"sequence": "QVQLVESGGGLVQAGGSLRLSCAASGRTFHGYAMGWYRQAPGKERELVAAINWRGGSTYYADSVKGRFTISRDNAKNTVYLQMNSLKPEDTAVYYCNKRQYSARVSRSYDYWGQGTQVTVSS", "polyreactivity (PSR sort gate)": "high polyreactivity"}
{"sequence": "QVQLVESGGGLVQAGGSLRLSCAASGRTFHGYAMRWYRQAPGKDRELVAAITSSGARTYYADSVKGRFTISRDNAKNTVYLQMNSLKPEDTACYYCNAEYYSTWYRFDYWGQGTQVTVSS", "polyreactivity (PSR sort gate)": "high polyreactivity"}
{"sequence": "QVQLVESGGGLVQAGGSLRLSCAASGRTFHSYAMGWYRQAPGKERELVAVITRRGGSTYYADSVKGRFTISRDNAKNTVYLQMNSLKPEDTAVYYCNKGKSYTYDYWGQGTQVTVSS", "polyreactivity (PSR sort gate)": "high polyreactivity"}
{"sequence": "QVQLVESGGGLVQAGGSLRLSCAASGRTFHYNVMGWYRQAPGKERELVAAITNTGGSTYYADSVKGRFTISRDNAKNTVYLQIYSLKPEDTAVYYCAAVIWGRRYGAYPYEYWGQGTQVTVSS", "polyreactivity (PSR sort gate)": "low polyreactivity"}
{"sequence": "QVQLVESGGGLVQAGGSLRLSCAASGRTFIAYAMGWYRQAPGKERELVAAITSSGGSTYYADSVKGRFTISRDNAKNTVYLQMNSLKPEDTAVYYCATDIYESPYFYYSYYYWGQGTQVTVSS", "polyreactivity (PSR sort gate)": "low polyreactivity"}
{"sequence": "QVQLVESGGGLVQAGGSLRLSCAASGRTFIDYGMGWYRQAPGKERELVAAISSGGSTYYADSVKGRFTISRDNAKNTVYLQMNSLKPEDTAVYYCAAPGFKYDVYAGYVLNGGGDYWGQGTQVTVSS", "polyreactivity (PSR sort gate)": "low polyreactivity"}
{"sequence": "QVQLVESGGGLVQAGGSLRLSCAASGRTFIGNVMGWYRQAPGKERELVAAISKSGTRTYYPDSVKGRFTISRDNAKNTVYLQMNSLKPEYTAVYYCAKDHYPRTDDFGYWGQGTQVTVSS", "polyreactivity (PSR sort gate)": "high polyreactivity"}
{"sequence": "QVQLVESGGGLVQAGGSLRLSCAASGRTFIGYAMGWYRQAPGKERELAAGISWSGGSTYYADSVKGRFTISRDNAKNTVYLQMNSLKPEDTAVYYCAARGRWSTEYGYWGQGTQVTVSS", "polyreactivity (PSR sort gate)": "low polyreactivity"}
{"sequence": "QVQLVESGGGLVQAGGSLRLSCAASGRTFIGYAMGWYRQAPGKERELVAAISPGGSTKYADSVKGRFTISRDNAKNTVYLQMNSLKPEDTAVYYCAASYSGRQDRYPHYDYWGQGTQVTVSS", "polyreactivity (PSR sort gate)": "low polyreactivity"}
{"sequence": "QVQLVESGGGLVQAGGSLRLSCAASGRTFIGYAMGWYRQAPGKERELVATISVSGGSTYYADSVKGRFTISRDNAKNTVYLQMNSLKPEDTAVYYCAKAYLRYYDGPYDYWGQGTQVTVSS", "polyreactivity (PSR sort gate)": "low polyreactivity"}
{"sequence": "QVQLVESGGGLVQAGGSLRLSCAASGRTFIINTMGWYRQAPGTERQLVAAISKNGATTNYADSVKGRFTISRDNAKNTVYLQMNSLKPVDTAVYYCNARYSGYLRLDYWGQGTQVTVSS", "polyreactivity (PSR sort gate)": "low polyreactivity"}
{"sequence": "QVQLVESGGGLVQAGGSLRLSCAASGRTFIKYAMGWYRQAPGKERELVAAISRNGGSTNYADSVKGRFTISRDNAKNTVYLHMNSLKPEDTAVYYCAAVGTVSRTVGYNYWGQGTQVTVSS", "polyreactivity (PSR sort gate)": "high polyreactivity"}
{"sequence": "QVQLVESGGGLVQAGGSLRLSCAASGRTFIKYAMGWYRQAPGKERELVAAITYSAGSTSYADSVKGRFTISRDNAKNTVYLQMNRLKPEDTAVYYCARRTRSYGYRSDYYYWGQGTQVTVSS", "polyreactivity (PSR sort gate)": "low polyreactivity"}
{"sequence": "QVQLVESGGGLVQAGGSLRLSCAASGRTFINYAMGWYRQAPGKERELVAAITTGGRTNYADSVKGRFTISRDNAKNTVYLQMNILKPEDTAVYYCAADRYYWGRYTLNYWGQGTLVTVSS", "polyreactivity (PSR sort gate)": "low polyreactivity"}
{"sequence": "QVQLVESGGGLVQAGGSLRLSCAASGRTFIPYAMGCYRPAPGKERELVAAIRSGASTNYADSVKGRFTISRDNAKITVYLQMNSLNPEDTAVYYCNADFLGGTWFDYWGQGTQVTVSS", "polyreactivity (PSR sort gate)": "high polyreactivity"}
{"sequence": "QVQLVESGGGLVQAGGSLRLSCAASGRTFIPYAMGWYRQAPGKVRELVAAIRNGGSTNYADSVKGRFTISRDNAKNTVYLQMNSLKPEATAVYYCNADLPVYVDYINGGYGYWGQGTQVTVSS", "polyreactivity (PSR sort gate)": "low polyreactivity"}
{"sequence": "QVQLVESGGGLVQAGGSLRLSCAASGRTFIRYAMGWYRQAPGKERELVAAISWSGDRTYYADSVKGRFTISRDNAKNTVYLQMNSLKPEDTAVYYCNAYRYLRTATFLKFDYWGQGTQVTVSS", "polyreactivity (PSR sort gate)": "high polyreactivity"}
